Test results taken from publication PMC2841647 (PLoS ONE, 2010).

Target: T1, brain TrkB receptors (Mus musculus, UniProt P15209)
T1 construct: KIRA-ELISA analysis of brain TrkB receptors from mice; from tissue; host or cells: adult Swiss mouse brain, 300-µm coronal slices
Experiment: In vivo KIRA-ELISA analysis after intravenous injection
Conditions: mice, i.v. 2×200 µg, 90-min interval
Description: Adult Swiss mice (20–25 g) received a double 90-min-interval i.v. injection of saline buffer, tat-cyclotraxin-B (2×200 µg) or tat-empty (2×200 µg). Three hours after the first injection, mice were decapitated, brains quickly removed on ice, 300-µm coronal sections were prepared with a vibratome at three levels (bregma 0.90 mm: caudate putamen/nucleus accumbens level; bregma −1.60 mm: dorsal hippocampus level; bregma −2.70 mm: ventral hippocampus level, see SI Fig. 8A ) and placed in a holding chamber for one hour. Slices were then incubated in Ringer's solution supplemented with tat-cyclotraxin-B or tat-empty (1 µM) in holding chamber saturated with 95% O2, 5% CO2. […] Experiments were stopped by quick removing of the medium on ice. […] Protein concentrations were determined and equal amounts of proteins were loaded in each well for KIRA-ELISA assays (see above). The following antibodies combination was used for phosphorylation assays: TrkB capture with polyclonal anti-TrkB (1 µg/ml); tyrosine phosphorylation quantification with biotinylated anti-phosphotyrosine (4G10, 0.5 µg/ml) and a streptavidin-peroxydase system (1∶4000). The following combination was used for total TrkB quantification: TrkB capture with monoclonal anti-TrkB (1∶1000); total TrkB quantification with polyclonal anti-TrkB (1 µg/ml). Absorbance at 450 nm was read after addition of TMB and acidification. […]

T1 sequence (P15209 32-821): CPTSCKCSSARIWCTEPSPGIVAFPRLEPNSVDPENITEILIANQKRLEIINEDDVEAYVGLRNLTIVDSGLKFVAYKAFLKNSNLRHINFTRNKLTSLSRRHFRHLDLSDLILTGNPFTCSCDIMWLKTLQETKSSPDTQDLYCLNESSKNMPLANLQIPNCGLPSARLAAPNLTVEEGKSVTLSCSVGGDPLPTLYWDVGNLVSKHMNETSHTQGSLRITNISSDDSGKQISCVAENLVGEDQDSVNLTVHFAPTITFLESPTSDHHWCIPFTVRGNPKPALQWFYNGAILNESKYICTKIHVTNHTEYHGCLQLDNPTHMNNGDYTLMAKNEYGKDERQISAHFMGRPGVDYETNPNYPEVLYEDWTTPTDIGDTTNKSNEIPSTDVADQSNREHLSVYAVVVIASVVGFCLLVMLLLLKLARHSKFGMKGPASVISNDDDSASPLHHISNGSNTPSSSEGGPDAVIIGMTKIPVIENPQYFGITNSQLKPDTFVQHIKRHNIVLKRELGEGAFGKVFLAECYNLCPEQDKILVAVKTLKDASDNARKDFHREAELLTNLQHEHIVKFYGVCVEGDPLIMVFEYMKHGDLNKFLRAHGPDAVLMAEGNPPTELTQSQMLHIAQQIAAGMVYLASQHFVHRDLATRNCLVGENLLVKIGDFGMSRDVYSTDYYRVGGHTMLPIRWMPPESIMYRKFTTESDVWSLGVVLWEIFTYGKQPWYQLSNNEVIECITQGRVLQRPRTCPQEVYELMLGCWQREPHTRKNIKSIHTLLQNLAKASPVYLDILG

YGRKKRRQRRRCNPMGYTKEGC [tat-cyclotraxin-B]
decrease in TrkB activity, injection: 50.9±3.1%
